Experimental findings from PMC9363427, “The SWI/SNF chromatin remodeling factor DPF3 regulates metastasis of ccRCC by modulating TGF-β signaling” (Nature Communications, 2022) are described below.

Sequences and labels used below:
B1: Recombinant full-length DPF3a, GST tag removed (natural protein, human, UniProt Q92784-2 1-357, looked up)
chain: MATVIHNPLKALGDQFYKEAIEHCRSYNSRLCAERSVRLPFLDSQTGVAQNNCYIWMEKRHRGPGLAPGQLYTYPARCWRKKRRLHPPEDPKLRLLEIKPEVELPLKKDGFTSESTTLEALLRGEGVEKKVDAREEESIQEIQRVLENDENVEEGNEEEDLEEDIPKRKNRTRGRARGSAGGRRRHDAASQEDHDKPYVCDICGKRYKNRPGLSYHYAHTHLASEEGDEAQDQETRSPPNHRNENHRPQKGPDGTVIPNNYCDFCLGGSNMNKKSGRPEELVSCADCGRSAHLGGEGRKEKEAAAAARTTEDLFGSTSESDTSTFHGFDEDDLEEPRSCRGRRSGRGSPTADKKGSC
notes: Zinc finger protein DPF3, isoform DPF3a, cDNA subcloned into pGEX-6P-1; Expressed with 0.1 mM ZnSO4; also called DPF3a-FL; full-length DPF3a proteins; source: E. coli BL21 (DE3)-RIL, purified (Glutathione Sepharose 4B, 3C protease, Superdex 200)

Experiment [1] has as its target T1, GST-tagged full-length SNIP1 (recombinant) (human, UniProt Q8TAD8 1-396).
T1 construct: also called SNIP1-FL; source: E. coli BL21 (DE3)-RIL, purified (Glutathione Sepharose 4B, Superdex 200)
T1 sequence (looked up): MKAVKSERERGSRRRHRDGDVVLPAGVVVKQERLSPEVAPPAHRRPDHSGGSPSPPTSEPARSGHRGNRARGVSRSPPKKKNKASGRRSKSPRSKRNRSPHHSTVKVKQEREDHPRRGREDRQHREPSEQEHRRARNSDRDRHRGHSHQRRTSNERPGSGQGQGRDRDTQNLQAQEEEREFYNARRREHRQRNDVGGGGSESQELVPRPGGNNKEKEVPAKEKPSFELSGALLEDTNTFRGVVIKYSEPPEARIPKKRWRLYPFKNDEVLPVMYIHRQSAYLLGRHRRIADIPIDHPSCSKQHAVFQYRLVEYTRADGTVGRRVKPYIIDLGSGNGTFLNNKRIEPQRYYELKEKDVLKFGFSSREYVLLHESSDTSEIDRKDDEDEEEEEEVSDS
Description: pull-down; 1.5 nmol GST-tagged DPF3a or SNIP1 construct on Glutathione Sepharose 4B beads, 2 nmol SNIP1 1-240 or full-length DPF3a added, 4 °C 2 h; 20 mM Tris pH 7.5, 100 mM NaCl, 5 mM β-mercaptomethanol; washes with 0.5% Triton X-100; SDS-PAGE. The note with it: both partners purified.

Experiment [2] deals with B1. The description is as above. The note with it: both partners purified.

With B1, in experiment [1], the binding result was “binds”.

B2: GST-tagged SNIP1 N-terminus (1-240) (recombinant) (domain or fragment, human, UniProt Q8TAD8 1-240, looked up)
chain: MKAVKSERERGSRRRHRDGDVVLPAGVVVKQERLSPEVAPPAHRRPDHSGGSPSPPTSEPARSGHRGNRARGVSRSPPKKKNKASGRRSKSPRSKRNRSPHHSTVKVKQEREDHPRRGREDRQHREPSEQEHRRARNSDRDRHRGHSHQRRTSNERPGSGQGQGRDRDTQNLQAQEEEREFYNARRREHRQRNDVGGGGSESQELVPRPGGNNKEKEVPAKEKPSFELSGALLEDTNTFR
notes: also called SNIP1-IDR; source: E. coli BL21 (DE3)-RIL, purified (Glutathione Sepharose 4B, Superdex 200)
As for B2, in experiment [2], the binding result is reported as “binds”.
